Source: patent US20070010016A1

Target: Adenovirus 5 receptor (on HeLa cells)
Assay: cell-based or functional assay

“Adenovirus 5 fiber protein (from UniProt P11818 1-581)” was tested, and the transduction of HeLa cells with Av1LacZ4 in the presence of competitor (beta-galactosidase positive cells, percent of control) was 0.1 to 1 mug/ml.
